The target in assay [1] is scorpion toxin (Centruroides noxius, UniProt P01495 17-82). Put plainly: BIAcore SPR, toxin immobilized, antibody in solution, from kinetic rate constants.
Assay [2] concerns the target T1, chicken lysozyme (chicken, UniProt P00698 19-147).
T1 construct: The assay paragraph says only 'lysozyme'; also called chicken lysozyme antigen
Put plainly: fluorescence quench titration (FIG. 7 legend).

The target of assay [3] is CD28Ig (human, UniProt P10747 19-152). Put plainly: ELISA, CD28Ig coated plates, anti-human k conjugate. On the technique in general: ELISA stands for enzyme-linked immunosorbent assay.

B1: (Fab)'2 fragment of mouse BCF2 IgG (other)
chain 1: DIVLTQSPVSLAVSVGQRATISCKASQSVDFDGESYMNWYQQKPGQPPKLLIYVVSNLESGIPARFSGSGSGTDFTLNIHPVEEEDAATYYCQQSNEDPLTFGAGTNLELKR
chain 2: EVQLQQSGPELVKPGASMKISCKVSGYSFTDHTMNWVKQSHGKNLELIGLINPFNGDATYKQKFTGKATLTVDRSSSTAFMELLSLTSEDSAVYYCARYGNYAMDYWGQGTSVTVSS
For B1, binding in assay [1] was put at a Kd of 10 nM.

B2: humanized D1.3 Fab (Fab, V domains shown)
VH: QVQLQESGPGLVKPSETLSLTCTVSGGSVSGYGVNWIRQPPGKGLEWIGMIWGDGNTDYNSSLKSRVTISVDTSKNQFSLKLSSVTAADTAVYYCARERDYRLDYWGQGTLVTVSS
VL: AIRMTQSPFSLSASVGDRVTITCRASGNIHNYLAWYQQKPAKAPKLFIYYTTTLADGVPSRFSGSGSGTDYTLTISSLQPEDFATYYCQHFWSTPRTFGGGTKVEIKR
Take B2: in assay [2], the Ka is greater than 1e+08 M⁻¹.

B3: humanized BCF2 Fab fragment (Fab, V domains shown)
VH: EVQLVQSGAEVKKPGATVKISCKVSGYTFTDHTMNWVQQAPGKGLEWMGLINPFNGDATYKQKFQGRVTITADTSTDTAYMELSSLRSEDTAVYYCARYGNYAMDYWGQGTTVTVSS
VL: DIVMTQTPLSLSVTPGQPASISCKASQSVDFDGESYMNWYLQKPGQPPQLLIYVVSNLESGVPDRFSGSGSGTDFTLKISRVEAEDVGVYYCQQSNEDPLTFGGGYKVEIKR
In the case of B3, in assay [1], the affinity, expressed as Kd, was 140 nM.

B4: Fab fragment comprised of mouse 9.3 variable domains and human constant domains (Fab, V domains shown)
VH: EVKLQQSGPGLVTPSQSLSITCTVSGFSLSDYGVHWVRQSPGQGLEWLGVIWAGGGTNYNSALMSRKSISKDNSKSQVFLKMNSLQADDTAVYYCARDKGYSYYYSMDYWGQGTSVTVSS
VL: DIELTQSPASLAVSLGQRATISCRASESVEYYVTSLMQWYQQKPGQPPKLLIFAASNVESGVPARFSGSGSGTNFSLNIHPVDEDDVAMYFCQQSRKVPYTFGGGTKLEIKR
Consider B4, for which it took 20 nM to reach a half-maximal effect in assay [3] (EC50).
